Test results reported in publication PMC6629437 (Cell, 2019).

Legend:
[1] = target: T1, HA head domain of H1 A/Solomon Islands/3/2006 (Influenza A virus A/Solomon …, strain); assay: BLI
T1 chain: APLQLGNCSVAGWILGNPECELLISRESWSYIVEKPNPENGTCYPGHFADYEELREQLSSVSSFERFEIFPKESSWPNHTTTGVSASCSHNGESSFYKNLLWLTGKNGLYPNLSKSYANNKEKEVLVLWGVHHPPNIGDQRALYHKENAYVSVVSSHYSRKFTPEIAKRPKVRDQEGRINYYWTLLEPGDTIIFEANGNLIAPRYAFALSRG

H1 HA of A/Texas/36/1991 = H1 HA of A/Texas/36/1991 (Influenza A virus A/Texas/36/1991 (H1N1), UniProt Q6WG02, strain); assay: ELISA

| Binder | binding result [1] | binding result (H1 HA of A/Texas/36/1991) |
| --- | --- | --- |
| rFluA-20 Fab (Fab, V domains shown) VH: QVQLEESGPGLVKPSETLSLTCSVSGVSVTSDIYYWTWIRQPPGKGLEWIGYIFYNGDTNYNPSLKSRVTMSIDTSKNEFSLRLTSVTAADTAVYFCARGTEDLGYCSSGSCPNHWGQGTLVTVSS VL: DIVMTQSPSSLSASIGDRVTITCRPSQNIRSFLNWFQHKPGKAPKLLIYAASNLQSGVPSRFSGSGSGTEFTLTIRSLQPEDFATYYCQQSYNTPPTFGQGTKVEIK | binds |  |
| rFluA-20 IgG D98A (H) (antibody, V domains shown) VH: QVQLEESGPGLVKPSETLSLTCSVSGVSVTSDIYYWTWIRQPPGKGLEWIGYIFYNGDTNYNPSLKSRVTMSIDTSKNEFSLRLTSVTAADTAVYFCARGTEALGYCSSGSCPNHWGQGTLVTVSS VL: DIVMTQSPSSLSASIGDRVTITCRPSQNIRSFLNWFQHKPGKAPKLLIYAASNLQSGVPSRFSGSGSGTEFTLTIRSLQPEDFATYYCQQSYNTPPTFGQGTKVEIK |  | no binding (tested: 10 μg/mL) |
| rFluA-20 IgG Q55A (L) (antibody, V domains shown) VH: QVQLEESGPGLVKPSETLSLTCSVSGVSVTSDIYYWTWIRQPPGKGLEWIGYIFYNGDTNYNPSLKSRVTMSIDTSKNEFSLRLTSVTAADTAVYFCARGTEDLGYCSSGSCPNHWGQGTLVTVSS VL: DIVMTQSPSSLSASIGDRVTITCRPSQNIRSFLNWFQHKPGKAPKLLIYAASNLASGVPSRFSGSGSGTEFTLTIRSLQPEDFATYYCQQSYNTPPTFGQGTKVEIK |  | binds |
| rFluA-20 IgG Y49A (L) (antibody, V domains shown) VH: QVQLEESGPGLVKPSETLSLTCSVSGVSVTSDIYYWTWIRQPPGKGLEWIGYIFYNGDTNYNPSLKSRVTMSIDTSKNEFSLRLTSVTAADTAVYFCARGTEDLGYCSSGSCPNHWGQGTLVTVSS VL: DIVMTQSPSSLSASIGDRVTITCRPSQNIRSFLNWFQHKPGKAPKLLIAAASNLQSGVPSRFSGSGSGTEFTLTIRSLQPEDFATYYCQQSYNTPPTFGQGTKVEIK |  | no binding (tested: 10 μg/mL) |
